Results: the RNAGym collection of RNA variant scans (doi:10.7554/elife.90254)

B1: LINE1-mini (parent)
chain: GGCAGAGCUCAACACAGCGUGGCAAAGUGGCUGUGGCUAGACUGCC

Variants of: B1
Test: self-cleavage, relative activity (ratio to wild type); higher = more cleavage; in vitro, sequencing; the parent is a self-cleaving ribozyme

Q: Which self-cleavage does the source give for AGCAGAGCUCAACACAGCGUGGCAAAGUGGCUGUGGCUAGACUGCC here?
A: 1.11

Q: With AGCAGAGCUCAACACAGCGUGGCAAAGUGGCUGUGGCUCGACUGCC as the variant, how does the self-cleavage read?
A: 0.14

Q: Which self-cleavage does the source give for AGCAGAGCUCAACACAGCGUGGCAAAGUGGCUGUGGCUUGACUGCC here?
A: 1.46

Q: With AGCAGAGCUCAACACAGCGUGGCAAAGUGGCUGUGGCUGGACUGCC as the variant, how does the self-cleavage read?
A: 0.12

Q: Which self-cleavage does the source give for AGCAGAGCUCAAUACAGCGUGGCAAAGUGGCUGUGGCUAGACUGCC here?
A: 0.2

Q: Which self-cleavage does the source give for AGCAGAGCUCAAAACAGCGUGGCAAAGUGGCUGUGGCUAGACUGCC here?
A: 0.13

Q: For AGCAGAGCUCAAGACAGCGUGGCAAAGUGGCUGUGGCUAGACUGCC, which self-cleavage is on record?
A: 0.1

Q: Which self-cleavage does the source give for AGCAGAGCUCCACACAGCGUGGCAAAGUGGCUGUGGCUAGACUGCC here?
A: 0.04

Q: Which self-cleavage does the source give for AGCAGAGCUCGACACAGCGUGGCAAAGUGGCUGUGGCUAGACUGCC here?
A: 0.06

Q: For AGCAGAGCUCUACACAGCGUGGCAAAGUGGCUGUGGCUAGACUGCC, which self-cleavage is on record?
A: 0.17

Q: For AGCAGAGCUCAACCCAGCGUGGCAAAGUGGCUGUGGCUAGACUGCC, which self-cleavage is on record?
A: 0.1

Q: With AGCAGAGCUCAACUCAGCGUGGCAAAGUGGCUGUGGCUAGACUGCC as the variant, how does the self-cleavage read?
A: 0.27

Q: Which self-cleavage does the source give for AGCAGAGCUCAACGCAGCGUGGCAAAGUGGCUGUGGCUAGACUGCC here?
A: 0.39

Q: Which self-cleavage does the source give for AGGAGAGCUCAACACAGCGUGGCAAAGUGGCUGUGGCUAGACUGCC here?
A: 0.56

Q: Which self-cleavage does the source give for AGUAGAGCUCAACACAGCGUGGCAAAGUGGCUGUGGCUAGACUGCC here?
A: 0.47

Q: With AGCAGAGCUCAACACAGCGUGGCAAUGUGGCUGUGGCUAGACUGCC as the variant, how does the self-cleavage read?
A: 0.53

Q: With AGCAGAGCUCAACACAGCGUGGCAAGGUGGCUGUGGCUAGACUGCC as the variant, how does the self-cleavage read?
A: 1.58

Q: Which self-cleavage does the source give for AGCAGAGCUCAACACAGCGUGGCAACGUGGCUGUGGCUAGACUGCC here?
A: 0.78

Q: For AGCAGAGCUCAACAAAGCGUGGCAAAGUGGCUGUGGCUAGACUGCC, which self-cleavage is on record?
A: 0.06

Q: With AGCAGAGCUCAACAGAGCGUGGCAAAGUGGCUGUGGCUAGACUGCC as the variant, how does the self-cleavage read?
A: 0.08

Q: With AGCAGAGCUCAACAUAGCGUGGCAAAGUGGCUGUGGCUAGACUGCC as the variant, how does the self-cleavage read?
A: 1.02

Q: For AGCAGAGCUUAACACAGCGUGGCAAAGUGGCUGUGGCUAGACUGCC, which self-cleavage is on record?
A: 0.35

Q: For AGCAGAGCUAAACACAGCGUGGCAAAGUGGCUGUGGCUAGACUGCC, which self-cleavage is on record?
A: 0.12

Q: Which self-cleavage does the source give for AGCAGAGCUGAACACAGCGUGGCAAAGUGGCUGUGGCUAGACUGCC here?
A: 0.18

Q: Which self-cleavage does the source give for AGCAGAGCUCAACACGGCGUGGCAAAGUGGCUGUGGCUAGACUGCC here?
A: 0.25

Q: With AGCAGAGCUCAACACCGCGUGGCAAAGUGGCUGUGGCUAGACUGCC as the variant, how does the self-cleavage read?
A: 0.11

Q: With AGCAGAGCUCAACACUGCGUGGCAAAGUGGCUGUGGCUAGACUGCC as the variant, how does the self-cleavage read?
A: 0.1

Q: With AGCAGAGCUCAACACAGCGUGGCAAAGUGGCUGUGGCUAGCCUGCC as the variant, how does the self-cleavage read?
A: 0.09

Q: For AGCAGAGCUCAACACAGCGUGGCAAAGUGGCUGUGGCUAGGCUGCC, which self-cleavage is on record?
A: 0.26

Q: Which self-cleavage does the source give for AGCAGAGCUCAACACAGCGUGGCAAAGUGGCUGUGGCUAGUCUGCC here?
A: 0.97

Q: For AGCAGAGCUCAACACAGCGUGGGAAAGUGGCUGUGGCUAGACUGCC, which self-cleavage is on record?
A: 0.53

Q: With AGCAGAGCUCAACACAGCGUGGAAAAGUGGCUGUGGCUAGACUGCC as the variant, how does the self-cleavage read?
A: 0.95

Q: For AGCAGAGCUCAACACAGCGUGGUAAAGUGGCUGUGGCUAGACUGCC, which self-cleavage is on record?
A: 1.29

Q: With AGCAGAGAUCAACACAGCGUGGCAAAGUGGCUGUGGCUAGACUGCC as the variant, how does the self-cleavage read?
A: 0.88

Q: With AGCAGAGUUCAACACAGCGUGGCAAAGUGGCUGUGGCUAGACUGCC as the variant, how does the self-cleavage read?
A: 0.78

Q: For AGCAGAGGUCAACACAGCGUGGCAAAGUGGCUGUGGCUAGACUGCC, which self-cleavage is on record?
A: 0.41

Q: For AGCAGAGCUCAACACAGGGUGGCAAAGUGGCUGUGGCUAGACUGCC, which self-cleavage is on record?
A: 0.38

Q: Which self-cleavage does the source give for AGCAGAGCUCAACACAGAGUGGCAAAGUGGCUGUGGCUAGACUGCC here?
A: 1.81

Q: For AGCAGAGCUCAACACAGUGUGGCAAAGUGGCUGUGGCUAGACUGCC, which self-cleavage is on record?
A: 0.94

Q: For AGCAGGGCUCAACACAGCGUGGCAAAGUGGCUGUGGCUAGACUGCC, which self-cleavage is on record?
A: 0.09

Q: For AGCAGCGCUCAACACAGCGUGGCAAAGUGGCUGUGGCUAGACUGCC, which self-cleavage is on record?
A: 0.81

Q: For AGCAGUGCUCAACACAGCGUGGCAAAGUGGCUGUGGCUAGACUGCC, which self-cleavage is on record?
A: 1.55

Q: Which self-cleavage does the source give for AGCAGAGCUCAGCACAGCGUGGCAAAGUGGCUGUGGCUAGACUGCC here?
A: 0.04

Q: For AGCAGAGCUCACCACAGCGUGGCAAAGUGGCUGUGGCUAGACUGCC, which self-cleavage is on record?
A: 0.04

Q: Which self-cleavage does the source give for AGCAGAGCUCAUCACAGCGUGGCAAAGUGGCUGUGGCUAGACUGCC here?
A: 0.19

Q: With AGCAGAGCUCAACACAGCGUGGCGAAGUGGCUGUGGCUAGACUGCC as the variant, how does the self-cleavage read?
A: 2.89

Q: Which self-cleavage does the source give for AGCAGAGCUCAACACAGCGUGGCUAAGUGGCUGUGGCUAGACUGCC here?
A: 1.15

Q: For AGCAGAGCUCAACACAGCGUGGCCAAGUGGCUGUGGCUAGACUGCC, which self-cleavage is on record?
A: 0.56

Q: With AGCAGAGCUCAACACAGCGUGGCAAAGUGGGUGUGGCUAGACUGCC as the variant, how does the self-cleavage read?
A: 0.11

Q: With AGCAGAGCUCAACACAGCGUGGCAAAGUGGAUGUGGCUAGACUGCC as the variant, how does the self-cleavage read?
A: 0.12

Q: For AGCAGAGCUCAACACAGCGUGGCACAGUGGCUGUGGCUAGACUGCC, which self-cleavage is on record?
A: 1.36

Q: For AGCAGAGCUCAACACAGCGUGGCAUAGUGGCUGUGGCUAGACUGCC, which self-cleavage is on record?
A: 1.09

Q: For AGCAGAGCUCAACACAGCGUGGCAGAGUGGCUGUGGCUAGACUGCC, which self-cleavage is on record?
A: 0.39

Q: Which self-cleavage does the source give for AGCUGAGCUCAACACAGCGUGGCAAAGUGGCUGUGGCUAGACUGCC here?
A: 0.27

Q: For AGCGGAGCUCAACACAGCGUGGCAAAGUGGCUGUGGCUAGACUGCC, which self-cleavage is on record?
A: 0.31

Q: Which self-cleavage does the source give for AGCCGAGCUCAACACAGCGUGGCAAAGUGGCUGUGGCUAGACUGCC here?
A: 0.08
